This note sets out measurements from patent publication US20030054411A1, “GPR motifs and uses thereof” (priority 2001, published 2003).

Experiment [1] has as its system pheromone response pathway. In words: Yeast expression cloning system, growth assay. As to conditions: for activity in the presence of Giα2 G204A mutant or RGS4: G204A Giα2 strain or RGS4 overexpression; for growth in yeast expression cloning system: Giα2 yeast strain, selective medium; for function in null Ste5 genetic background: yeast strain lacking Ste5. Format: cell-based, Saccharomyces cerevisiae. From the text: (A) Three cDNA clones (#34, #37 and #53) were isolated from a screen of 1.1×10^6 yeast transformants based upon their ability to promote growth in a galactose-dependent manner in the yeast expression cloning system (5). B) Analysis of the cDNA clones in spot growth assays using yeast strains lacking STE20, STE5 or STE4. Control (Non-induced/no selection)—glucose media lacking uracil and tryptophan (UT). Non-induced/selection—glucose media lacking uracil/tryptophan/histidine (UTH) and containing the histidine analog aminotriazole (AT) at 1 mM. Induced/selection—galactose media lacking UTH and containing 1 mM AT. WT—wild type strain CY1316/1183. cDNA #34 was active in the absence of a functional STE5 and thus was not evaluated (black circles in key) in yeast strains lacking STE4 or STE20. For spot growth assays, ˜2,000 cells suspended in water were spotted on appropriate medium and the plates were incubated at 30° for 2 days prior to photography. Experiments in (A, B) were repeated three times with similar results.
(§1) (A) Bioactivity of cDNA #37 and 53 in yeast strains expressing different Gα subunits. The Gpa1, Giα2Gpa1(1-41), Giα3Gpa1(1-41) and Gα16Gpa1(1-41) yeast strains expressed similar amounts of G-protein as determined by immunoblotting with Gpa1-specific antisera. Each series of experiments include data obtained in the absence of Gα to indicate the signal obtained when the action of Gβγ is not limited by reformation of heterotrimer. Data are presented as the mean±S.E.M of three experiments with duplicate determinations. (B) Interaction of AGS2 and AGS3 with G-proteins. AGS2 and the bioactive AGS3 peptide (74 amino acids) beginning at the first in frame methionine were generated as GST-fusion proteins in bacteria and purified using a glutathione affinity matrix. AGS2 and AGS3 GST fusion proteins were incubated with G-protein subunits (Gα=60-80 nM, Gβγ=40 nM, fusion protein=˜300 nM, total volume=250 ul) for 12 hrs at 4° C. GDP=10 uM. GTPγS=10 uM plus 5 mM MgCl2. Proteins were then adsorbed to glutathione matrix and retained G-protein subunits identified by immunoblotting following gel electrophoresis. Giα2 was generated in Sf9 cells as an amino terminal his6-tagged protein and was detected on membrane transfers using anti-Xpress antisera (Invitrogen). Bovine brain Gβγ was detected on membrane transfers with Gβ antisera. Input refers to 20 ul of the incubation mixture. The results presented are representative of four separate experiments. […] C) Effect of G204A Giα2 substitution and RGS4 on the functionality of AGS proteins. The G204A Giα2 yeast strain and the system used for over expression of RGS4 are described in detail in reference 5. Protein expression was confirmed by immunoblotting. AGS 1 was discovered in a similar screen using a human liver cDNA library (5, 7). WT—wild type strain CY1316/1183 containing Giα2 as described for the original yeast screen. RGS4 was overexpressed in the CY1316/1183 yeast strain. Similar results were obtained in three experiments.
Generation and screening of cDNA libraries. The NG108-15 cell line was propagated as previously described (4). mRNA was prepared from twenty 100 mm confluent plates of cells and used to generate a cDNA library in the yeast expression vector pYES2. The library was constructed by standard procedures using reagents from Stratagene. Analysis of individual transformants indicated cDNA inserts ranging from 400 to 3000 nt with ˜70-80% of the transformants containing cDNA inserts. The primary transformants were then amplified by solid phase agarose growth for 48 hr and plasmid DNA isolated by column fractionation (Qiagen). The NG108-15 cDNA library was then screened for activators of the pheromone response pathway as described (5). We used a his3 far1 yeast strain containing a genomic integration of the FUS1p-HIS3 reporter construct and lacking both the native pheromone response receptor Ste3 and Gpa1 Gα subunit. […]

The target in experiment [2] is T1, Giα2 (Homo sapiens, UniProt P04899).
T1 construct: made in house; host or cells: Sf9 insect cells
In words: GST fusion protein interaction with purified Giα2. It is filed as binding. The conditions noted are these: for interaction with Giα2: GST fusion protein ~300 nM, Gα 60-80 nM.
Excerpt: as §1, with “Similar results were obtained in three experiments.” left out
(§2) Immunoblotting and G-protein interaction assays. […] Bound proteins were detected by immunoblotting membrane transfers with specific antisera. […]

Experiment [3] deals with brain Gβγ. In words: GST fusion protein interaction with purified brain Gβγ. Format: binding, bovine. As to conditions: GST fusion protein ~300 nM, Gβγ 40 nM.
Excerpt: (A) Bioactivity of cDNA #37 and 53 in yeast strains expressing different Gα subunits. The Gpa1, Giα2Gpa1(1-41), Giα3Gpa1(1-41) and Gα16Gpa1(1-41) yeast strains expressed similar amounts of G-protein as determined by immunoblotting with Gpa1-specific antisera. Each series of experiments include data obtained in the absence of Gα to indicate the signal obtained when the action of Gβγ is not limited by reformation of heterotrimer. Data are presented as the mean±S.E.M of three experiments with duplicate determinations. (B) Interaction of AGS2 and AGS3 with G-proteins. AGS2 and the bioactive AGS3 peptide (74 amino acids) beginning at the first in frame methionine were generated as GST-fusion proteins in bacteria and purified using a glutathione affinity matrix. AGS2 and AGS3 GST fusion proteins were incubated with G-protein subunits (Gα=60-80 nM, Gβγ=40 nM, fusion protein=˜300 nM, total volume=250 ul) for 12 hrs at 4° C. GDP=10 uM. GTPγS=10 uM plus 5 mM MgCl2. […] Giα2 was generated in Sf9 cells as an amino terminal his6-tagged protein and was detected on membrane transfers using anti-Xpress antisera (Invitrogen). Bovine brain Gβγ was detected on membrane transfers with Gβ antisera. […]
as §2

T1 sequence (P04899 whole entry): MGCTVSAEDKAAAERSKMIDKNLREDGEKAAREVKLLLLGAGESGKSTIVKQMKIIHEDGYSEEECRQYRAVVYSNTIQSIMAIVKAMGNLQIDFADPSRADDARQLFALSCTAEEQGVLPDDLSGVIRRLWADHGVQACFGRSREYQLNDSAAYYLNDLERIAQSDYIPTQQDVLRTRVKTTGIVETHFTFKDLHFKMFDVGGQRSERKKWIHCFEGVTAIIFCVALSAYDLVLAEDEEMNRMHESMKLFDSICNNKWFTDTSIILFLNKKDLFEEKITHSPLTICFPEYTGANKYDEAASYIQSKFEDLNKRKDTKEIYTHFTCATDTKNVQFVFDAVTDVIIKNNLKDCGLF

As for “AGS2: Activator of G-protein Signalling 2, protein identical to mouse Tctex1, isolated from NG108-15 cDNA library”, in experiment [1], the “activity in the presence of Giα2 G204A mutant or RGS4” value is “still active”, the “growth in yeast expression cloning system” value was “promoted growth in a galactose-dependent manner”, the “function in null Ste5 genetic background” value is recorded as “did not function” and the “activity in yeast strains lacking Ste20 or Ste4” value is “inactive”. The “interaction with Giα2” value in experiment [2] is on record as “did not interact”. In experiment [3], the “interaction with brain Gβγ” value is listed as “directly bound”.

B1: AGS3: Activator of G-protein Signalling 3; bioactive 74 amino acid fragment isolated in yeast screen, tested as GST fusion (protein)
chain: MLIKYQSSRIDDQRCPPPDVLPRGPTMPDEDFFSLIQRVQAKRMDEQRVDLAGSPDQEASGLPDPRQQCPPGAS
modifications: left off: a dimerising Fc or GST
As for B1, in experiment [1], the “activity in the presence of Giα2 G204A mutant or RGS4” value was “still active”, the “growth in yeast expression cloning system” value is “promoted growth in a galactose-dependent manner”, the “function in null Ste5 genetic background” value is listed as “did not function” and the “activity in yeast strains lacking Ste20 or Ste4” value is “inactive”. For the same molecule, in experiment [2] (GDP 10 uM versus GTPγS 10 uM), the “preferred nucleotide-bound conformation of Gα” value is “preferred the GDP bound conformation”. Besides, the “interaction with Giα2” value in experiment [2] was “specifically bound”. The “interaction with brain Gβγ” value in experiment [3] was “did not interact”.
